# Residue numbers refer to the chain shown, from its start.
# T1: MutSCF (cysteine-free MutS) (Escherichia coli K12, UniProt P23909 1-853, C93A;C235S;C239A;C297S;C569S;C711V)
# T1 sequence: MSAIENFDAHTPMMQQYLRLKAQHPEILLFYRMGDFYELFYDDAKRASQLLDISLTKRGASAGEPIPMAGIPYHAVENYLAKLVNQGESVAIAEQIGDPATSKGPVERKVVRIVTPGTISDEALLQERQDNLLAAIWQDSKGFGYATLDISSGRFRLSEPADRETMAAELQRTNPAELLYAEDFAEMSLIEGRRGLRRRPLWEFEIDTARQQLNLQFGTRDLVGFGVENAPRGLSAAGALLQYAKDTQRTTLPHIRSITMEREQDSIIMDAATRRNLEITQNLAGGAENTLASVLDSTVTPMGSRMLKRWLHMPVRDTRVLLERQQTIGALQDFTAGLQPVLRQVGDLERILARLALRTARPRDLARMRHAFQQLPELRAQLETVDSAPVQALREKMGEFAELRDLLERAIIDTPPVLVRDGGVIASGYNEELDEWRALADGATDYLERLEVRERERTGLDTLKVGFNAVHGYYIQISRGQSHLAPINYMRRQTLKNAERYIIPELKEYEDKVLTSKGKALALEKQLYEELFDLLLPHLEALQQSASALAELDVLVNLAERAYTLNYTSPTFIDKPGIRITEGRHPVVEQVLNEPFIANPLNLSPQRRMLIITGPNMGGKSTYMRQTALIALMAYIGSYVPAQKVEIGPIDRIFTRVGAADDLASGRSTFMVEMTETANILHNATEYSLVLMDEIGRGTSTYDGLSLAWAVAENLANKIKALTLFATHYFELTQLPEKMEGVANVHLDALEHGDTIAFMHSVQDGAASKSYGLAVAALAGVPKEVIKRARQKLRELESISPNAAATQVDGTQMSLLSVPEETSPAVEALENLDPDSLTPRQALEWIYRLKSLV
# T2: MutSCF/D835R (Escherichia coli K12, UniProt P23909 1-853, C93A;C235S;C239A;C297S;C569S;C711V;D835R)
# T2 sequence: T1 sequence with D835R
# T3: MutSwt (Escherichia coli K12, UniProt P23909 1-853)
# T3 sequence: T1 sequence with A93C, S235C, A239C, S297C, S569C, V711C
# B1: 42 bp G/T heteroduplex (dsDNA)
# DNA 1: TATTAATTTCGCGGGCTCGAGAGCTTCATCCTCTACGCCGGA
# DNA 2: TCCGGCGTAGAGGATGAAGCTTTCGAGCCCGCGAAATTAATA
# Legend:
# Experiment in all cases: EMSA
# [1] = biological target: T1, MutSCF (cysteine-free MutS)
# MutSCF/D835R = biological target: T2, MutSCF/D835R
# MutSwt = biological target: T3, MutSwt
binder,measurement,setting,value
B1,apparent K (half saturation),[1],42 ± 2 nM
same,apparent K (half saturation),MutSCF/D835R,45 ± 3 nM
same,binding result,MutSwt,binds

# From paper PMC1636413 (Nucleic Acids Research, 2006)
